Laboratory results published in the nanobody polyreactivity screen of Harvey et al. (2022).

Assay: yeast display, Sf9 membrane polyspecificity reagent, FACS + sequencing; frameworks hold sequencing errors
Procedure, shortened: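 Using colony PCR, genes from sorted yeast display clones were amplified, then sequenced on MiSeq at 2 × 250 and filtered by CDR length. The clones had been stained with 10% biotinylated, detergent-solubilized Sf9 membrane reagent for 1 hour at 4 °C and sorted by FACS into low and high (top ~1%) gates on anti-HA and streptavidin fluorescence. Polyreactivity labels come from the gate of origin.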

Row | Sequence | polyreactivity (PSR sort gate)
1 | QDQLVESGVGLVQAGGSLRLSCAASGYIFLLYDMGWYRQAPGKEREMVATITSGGGTYYADSVKGRVTISRDNAKNTVYLQMNSLIPEDTAVYYCNADLYRWTGRSYWDKHGSWGQGTQVTVSS | low polyreactivity
2 | QVQLVESGGGLVQAGGSLRLSCAASGSIFDPYAMGWYRQAPGKERELVAAINGGSGSTFYADSVKGRFTISRDNAKNTVNLQMNSLKPEDTAVYYCAAKIWRYSPSYYPEPRGDYWGQGTQVTVSS | low polyreactivity
3 | QVQLVESGGGLDQAGGSLRLSCAASGFTFRHNTMGGYRQAPGKEREMVAAISIGGRTYYADSVKGRFTISRDNAKNTVYLQMNSLKPEDTAVYYCAKLSRGQSPGYDYWGQGTQVTVSS | high polyreactivity
4 | QVQLVESGGGLVQAGGSLRLSCAASGLTFIKYAMGWYRQAPGKEREFVADISKRGGTTYYADSVKGRFTISRDTEKNTVYLQMNSLKPEDTAVYYCAARQYLNVYYRYDYWGQGTQVTVSS | high polyreactivity
5 | QVKLVESGGGLVQAGGSLRLSCAASGSTSRDNAMGWYRQAPGKERELVGAITVIDGTTYYADSVKGRFTISRDNAKNTVYLQMNSLKPEDTAVYYCAADTIWYEYYYWGQGTQVTLSS | low polyreactivity
6 | QVQLVESGGGLVQAGGSLRLSCAASGITLTPYAMGWYRQAPGKERELVAAISWSGGSTYYADSVKGRFTISRDNAKNTVYLQMNSLKPEDTAVYYCAAGPGQYTVYAGTIGEYDYWGQGTQVTVSS | high polyreactivity
7 | QVQLVESGGGLVQAGGSLRLSCAASGSTFDGNAMGWYRQAPGKERELVAAITSGGSTNYADSVKGRFTISRDNAKNTVYLQMNSLKPEDTAVYYCAADTVSFSILYDYWGQGTQVTVSS | low polyreactivity
8 | QVQLVESGGGLVQAGGSLRLSCAASGRIFPYYVMGWYRQAPGKERELVASISSGGNTNYADSVKGRFTISRDNAKNTVYLQMNSLKPEDTAVYYCAARWRRKGYYWARFDYWGQGTQVTVSS | high polyreactivity
9 | QVQLVESGGGLVQAGGSLRLSCAASGRIFPTYTMGWYRQAPGKERELLAAISGRGGNTYYADSVKGRFTISRDTAKNTVYLQMNSLKPEDTAVYYCAARYPVRNGYWGLGTQVTVSS | high polyreactivity
10 | QVQLVESGGGLVQAGGSLRLSLAASGSNFSSYAMGWYRQAPGKEREWVAAIRLIGGTTYYADSVKGRFTISRDNAKNTVYLQMNSLKPEDTAVYYCNAPSYPDYIYWSQRYDYDYWGQGTKVTVSS | low polyreactivity
11 | QVQLVESGGGLVQAGGSLRLSCAASGRIFQPYAMGWYRQAPGKERELVAAITRSGGSTYYADSVKGRFTISRDNAMNTVDLQLNSLKPEDTAVSYCASKVLYPYEYWGQGTQVTVSS | low polyreactivity
12 | QVQLVESGGGLVQAGGSLRLSCAASGRIFYSNAMGWYRQAPGKERELVAAIRDSAGSTRYADSVKGRFTISRDNAKNTVYLQMNSLKPEDTAVYYCNKDYVSIYFEYLDDYWGQGTQVTVSS | low polyreactivity
13 | QVQLVESGGGLVQAGGSLRLSCAASGIIFDYYAMGWYRQAPGKERELVATITSGGSTNYADSVKGRFTISRDNAKNTVYLQMNSLKPEDTAVYYCAKEYFATWLIPKYDYWGQGTQVTVSS | low polyreactivity
14 | QVQLQESGGGLVQAGGSLRMSCAASGSISHYIFMGWYRQAPGKEREFVAGIGYGGTTNYADSVKVRFTISRDNAKNTVYLQMNRLKPEDTAMYYCAAREATEFYLYYWGQGTQVTVSS | low polyreactivity
15 | QVQLVESRGGLVQAGGSLRLSFPDSGSTYVKNAMGWYRHAPGKERELVARISYSGGSTYADSVKGRFTISRDNAKNTVYLQMNSLKPEDSAVYYCNARTHNWWDGDGVYSQSLYDYWGQGTQVTVSS | low polyreactivity
16 | QVQLVESGGGLVQAGGSLRLSCAASGFICFDYDMGWYRQAPGKERELVAAINWTGGSTDYADSVKGRFTISRDNAKNTVYLQMNSLKPEDTAVYYCAAEGQDGRFYWGQGTQVTVSS | low polyreactivity
17 | QVQLVESGGGLVQAGGSLRLSCAASGRTFSYYAMGWYRQAPGKERELVAAISSGGSTNYADSVKGRFTISRDNAKNTVYLQMNSLKPEDTAVYYCATSSIWGSGRVRWVTYYYWGQGTQVTVSS | low polyreactivity
18 | QVQLVESGGGLVQAGGSLRLSCAASGSTFSYYVMGWYRQAPGKERELVAAISGSGGSTYYSDSVKGRFTISRDNAKNTVYLQMNSLKPEDTAVYYCAANDGSEYDYWGQGTQVTVSS | high polyreactivity
19 | QVQLVESGGGLVQAGGSLRLSCAASGRTLPKYVLGWYRQSPGKERELVAAISSSGDSTYYADSVNGRFTISRDNAKNTVYLQMNILKPEDTAVYYCDKYDRNTYGYWGQGTQVTVST | low polyreactivity
20 | QVQLVESGGGLVQAVGSLRLSCAPSGRTLNNYTMGWNRPAPGKERELVAAIRWSTGSTYYADSVKGRFTISRDNSKNTVYLQMNSLKPEDTAVYYCNAYRYQWAQSTEYDYWGQGTQVTVSS | high polyreactivity
21 | QVQLVESGGGLVQAGGSLRLSCAASGSIFYQNAMGWSRQAPGKEWELVAAISWSGGSTYYADSVKGRFTISRDNAKNTDFLQMNSLKPEDTAVYYCNKYVRFRGGAYVTGYDYWGQGTQVTVSS | high polyreactivity
22 | HVQLKESGGGLVQAGGSLRLSCAASGSIFKVVDMGLYRKAPAKEREFVANIGEGCNTYYADSVKGRFTISRDNAKNTVYLQMNSLKPEDTAVYFYAFVLGTSYRYTYWGQGTLVTVSS | low polyreactivity

Row | Sequence | polyreactivity (PSR sort gate)
23 | QVQLVESGGGLVQAGGSLRLSCAASGRIFPAYVMGWYRQAPGKERELVATIDNGGCTYYADSVKGRFTISRDNAKNTVYLQMNSLKPEDTAVYYCARDRHVRWGLKMDYWGQGTQVTVSS | low polyreactivity
24 | QVLLVVSGGGLVQAGGSLRLSCAASGFTFDTYAMGWNRQAPGKERELVAVITRGGSTNYADSVNGRFTISRDNAKNTVYLQMNSLKPEDTALYFCAAEHRNTYTFARDYYWGQGTQVTVSS | high polyreactivity
25 | QDQLVESGGGLVQARGSLRLSSAATGSIFGTKAKGWYRQATGKEKEYDAAIDYSGSITRYADSVKGRFTISRDLSKNTVYLKMNSLKPEDTAVYYCAARSYAKDWGGYNYWGQGTQGTVSS | high polyreactivity
26 | QVQLVESGGGLVQAGGSLRLSCAASGSIFYGYAMGWFRQAPGKEREFVADITSSGVSTYYADSVKGRFTISRDNAKNSVYLQINSLKPEDTAVYYCAKLRRYYSSVYHKFVFYTDDYWGQGSQVTVSS | high polyreactivity
27 | QVQLVESGGGVVQAGGSLRLSCAGSGFTFIYYAMGWYRQAPGTERELVAAITTSRGRTDSADSVKGRVTISRDNAKNTVYLQMNSLKPEDTAVYYCNAVVYTKYYFIPWYPYDYWGHGTQVTVSS | high polyreactivity
28 | QVQLVESGGGLVQAGGSLRLSCAASGSISPQNVMGWYTQAPGKERELVAAITGGGSTNYADSVKGRFTISRDNAKNTVFLLMNSLKPEDTAVYYCNADYFQDRLDYWGQGTQVTVSS | low polyreactivity
29 | QVQLVESGGGLVQAGGSLRLSCAASGIIFYVYAMGWYRQAPGKERELVAAISDTAGDTYYADSVKGRFTISRDNAKNTVYLQMNSLKPEDTAVSYCAADYYPLVGYWGQGTQVTVSS | low polyreactivity
30 | QVHLVESGGGLVQAGGSLRLSCAASGSTFVTNAMGWYRQAPGKERELVAAITSGAGTYYADSVKGRFTISRDNAKNTVYLQMNSLKPEDTAVYYCAARRYYSRGRYRFGYWGQGTQVTVSS | high polyreactivity
31 | QVQLVESGGGLVQAGGSLRLSCAASGLIFPWNAMGWYRQAPGKERELVAAINGRDGSTYYADSVKGLFTISRDNAKNTVYLQMNSLKPEDTAVYYCAKGPSGVRTYREYDSWGQGPQVTVSS | low polyreactivity
32 | QVQLVESGGGLVQAGGSLRLSCAASGRTFRFYAMGWYRQAPGKERELVAGITGGGSTNYADSVKGRFTISRDNAKNTVYLQMNSLKPEDTAVYSCNATIRYYRRGKLYDYWGQGTQVTVSS | high polyreactivity
33 | QGQLVESGGGLVQAGGSLRLSCAASGRIVRPNAMGWYRQAPGKETEFVAAISSGGSTYYADSVKGRFTISRDNAKNSVYLQMNSLKPEDTAVYYCAADLSNRPYYRQGYDYWGQGTQVTVSS | high polyreactivity
34 | QVQLVESGGGLVQAGGSLRLSCAASGNIFAWYAMGGYRQAPGKERELVADISSRGGSTYYADSVKGRFTISRDNAKNTVYLQMNSLKPEDTAVYYCAAVWYWTQDYDYWGQGTQVTVSS | low polyreactivity
35 | QVQLVESGGGLVQAGGSLRLSCAASGSTFKRYAMGWYRQAPGKERELVAAINRSGTSTYADSVKGRFTISRDNAKNTVYLQMNSLKPEDSAVYYCARYYAYLRVKYDYWGQGTQVTVSS | high polyreactivity
36 | QVQLVESGGGLVQAGGSLRLSCAASGGIFRFNAMAWYRQAPGKERELVAAINRGGSTDYADSVKGRFTSSRDNAKNTVYLQMNSLKPEDTAVYYCAADYEYRPKTRDGYYWGQGTQVTVSS | low polyreactivity
37 | QVQLVESGGGLVQAGGSLRLSCAASGFIFGVYAMGWYRQAPAKERELDAAISYRTGTTYYADSVKGRFTISRDNAKNTVYLQMNSLKPEDTAVYYCAAKSRAAVRKYGSEYWGQGTQVTVSS | high polyreactivity
38 | QVQLVESGGGLVQAGGSLRLSCAASGSNFSYYAMGWYRQAPGKERELVAAITWRSGRTYYADSVKGRFTISRDNAKNTVYLQMNSLKPEDTAVYYCAAYWWRVKYHGYYYWGQGTQVTVSS | high polyreactivity
39 | QVQLEESGGGLVQAGGSLRLSCAASGRTFRRNAMGWYRQAPGKERELVADISNGDSTKYADSVKGRFTISRDNAKNTVYLQMHSLIPEDTAVYYCNAQRYRVVVYISHGWQTRNYWGQGTQVTVSS | low polyreactivity
40 | QVQLVESGGGLVQAGGSLRLSCAASGIISYVYAMGWYRQAPGKERELVAAINWSGGNTYYADSVKGRFTISRDNAKNTVYLQMNSLKPEDTAVYYCAARAVLKSWAYYYWGQGTQVTVSS | high polyreactivity
41 | QVQLVESVGGLVQAGGSLRLSCAASGSIFSRNAMGWYRQAPGKERELVAAIRSTVSTYYADSVKGRFTISRDNAKNTVYLQMNSLKPEDTAVYYCATVTHVSPNKYYYWGQGTQVTVSS | high polyreactivity
42 | QVQLVESGGGLFQAGGSLRLSSAASGSTFDPYAMGWSRQAPGKERELVATITYSGGRTYYADSVKGRFTISGDNAKNTVYLQMNSLKPEDTAVYYCAVDVVYWGGDYCGQGTQVTVSS | low polyreactivity
43 | QVQLVESGGGLVQAGGSLRLSCAASGSIIDYYAMGWYRPAPGKERELVAAISESSDSTYYADSVKGRFTISRDNAKNTVYLQMNSLTPEDTAVYYCAADSLTPKSASDYWGQGTQVTVSS | low polyreactivity
